Reference: paper PMC9482650, “Quantitative fragmentomics allow affinity mapping of interactomes” (Nature Communications, 2022)

T1: DFNB31_1, Q9P202
T1 sequence (Q9P202 135-233, limits assumed, looked up): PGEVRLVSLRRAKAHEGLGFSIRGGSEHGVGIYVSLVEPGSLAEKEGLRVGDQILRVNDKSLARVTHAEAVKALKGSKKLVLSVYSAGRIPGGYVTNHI

T2: DLG3_2, Q92796
T2 sequence (Q92796 221-321, limits assumed, looked up): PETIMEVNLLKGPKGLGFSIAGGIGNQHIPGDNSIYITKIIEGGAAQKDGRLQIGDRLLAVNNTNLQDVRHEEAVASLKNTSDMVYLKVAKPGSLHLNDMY

T3: HTRA4, P83105
T3 sequence (P83105 378-476, limits assumed, looked up): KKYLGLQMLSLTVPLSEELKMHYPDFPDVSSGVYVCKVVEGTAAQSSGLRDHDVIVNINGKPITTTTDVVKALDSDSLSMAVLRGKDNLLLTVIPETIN

T4: LIN7B, Q9HAP6
T4 sequence (Q9HAP6 88-185, limits assumed, looked up): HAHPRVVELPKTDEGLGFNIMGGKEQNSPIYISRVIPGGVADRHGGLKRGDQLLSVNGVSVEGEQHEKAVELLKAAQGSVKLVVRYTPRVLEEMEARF

T5: MPDZ_10, O75970
T5 sequence (O75970 1624-1722, limits assumed, looked up): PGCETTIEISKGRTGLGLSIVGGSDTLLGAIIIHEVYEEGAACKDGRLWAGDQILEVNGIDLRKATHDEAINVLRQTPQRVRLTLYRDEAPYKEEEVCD

T6: NHERF3_1, Q5T2W1
T6 sequence (Q5T2W1 4-100, limits assumed, looked up): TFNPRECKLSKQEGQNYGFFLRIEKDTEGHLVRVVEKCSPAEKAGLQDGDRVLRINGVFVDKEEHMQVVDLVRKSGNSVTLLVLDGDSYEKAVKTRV

T7: RAPGEF6, Q8TEU7
T7 sequence (Q8TEU7 525-625, limits assumed, looked up): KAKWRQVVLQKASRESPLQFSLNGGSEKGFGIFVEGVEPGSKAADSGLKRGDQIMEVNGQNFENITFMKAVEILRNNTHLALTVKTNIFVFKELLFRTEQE

T8: SNTA1, Q13424
T8 sequence (Q13424 82-180, limits assumed, looked up): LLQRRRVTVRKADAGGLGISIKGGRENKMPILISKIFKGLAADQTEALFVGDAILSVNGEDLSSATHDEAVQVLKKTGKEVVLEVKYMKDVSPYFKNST

T9: SNTG1, Q9NSN8
T9 sequence (Q9NSN8 52-150, limits assumed, looked up): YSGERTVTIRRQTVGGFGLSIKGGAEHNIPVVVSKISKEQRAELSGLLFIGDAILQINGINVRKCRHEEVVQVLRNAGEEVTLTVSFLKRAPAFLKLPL

T10: SNTG2, Q9NY99
T10 sequence (Q9NY99 68-166, limits assumed, looked up): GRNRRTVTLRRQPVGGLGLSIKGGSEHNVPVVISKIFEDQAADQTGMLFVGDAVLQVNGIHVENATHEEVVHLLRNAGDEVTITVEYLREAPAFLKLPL

T11: TIAM2, Q8IVF5
T11 sequence (Q8IVF5 885-986, limits assumed, looked up): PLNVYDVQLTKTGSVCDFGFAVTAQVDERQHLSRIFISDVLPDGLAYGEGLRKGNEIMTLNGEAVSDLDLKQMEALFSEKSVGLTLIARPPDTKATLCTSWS


What was measured:
Assay in all cases: holdup assay
Parameters in all cases: key: below the threshold = too weak to quantify, mostly under pKd 3.1 to 4
Conditions in all cases: plain residues with an end cap or a label only (N-terminal biotin on a linker: ado-ado)
[1] = molecular target: CASK, O14936
[2] = molecular target: T1, DFNB31_1, Q9P202
[3] = molecular target: T2, DLG3_2, Q92796
[4] = molecular target: DLG4_3, P78352
[5] = molecular target: DLG5_1, Q8TDM6
[6] = molecular target: FRMPD2_2, Q68DX3
[7] = molecular target: GOPC, Q9HD26
[8] = molecular target: GORASP2, Q9H8Y8
[9] = molecular target: GRIP2_5, Q9C0E4
[10] = molecular target: T3, HTRA4, P83105
[11] = molecular target: IL16_1, Q14005
[12] = molecular target: IL16_4, Q14005
[13] = molecular target: Inadl_8, Q8NI35
[14] = molecular target: LIMK2, P53671
[15] = molecular target: T4, LIN7B, Q9HAP6
[16] = molecular target: T5, MPDZ_10, O75970
[17] = molecular target: T6, NHERF3_1, Q5T2W1
[18] = molecular target: NOS1, P29475
[19] = molecular target: PARD3_3, Q8TEW0
[20] = molecular target: PDLIM1, O00151
[21] = molecular target: T7, RAPGEF6, Q8TEU7
[22] = molecular target: SCRIB_1, Q14160
[23] = molecular target: T8, SNTA1, Q13424
[24] = molecular target: T9, SNTG1, Q9NSN8
[25] = molecular target: T10, SNTG2, Q9NY99
[26] = molecular target: T11, TIAM2, Q8IVF5

CASK, O14936, sequence (O14936 487-570): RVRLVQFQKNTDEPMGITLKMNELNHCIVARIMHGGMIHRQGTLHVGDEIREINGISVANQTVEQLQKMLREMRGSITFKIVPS
GRIP2_5, Q9C0E4, sequence (Q9C0E4 544-642): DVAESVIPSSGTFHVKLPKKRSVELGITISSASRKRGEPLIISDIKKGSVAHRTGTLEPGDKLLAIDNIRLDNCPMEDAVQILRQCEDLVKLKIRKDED
SCRIB_1, Q14160, sequence (Q14160 718-814): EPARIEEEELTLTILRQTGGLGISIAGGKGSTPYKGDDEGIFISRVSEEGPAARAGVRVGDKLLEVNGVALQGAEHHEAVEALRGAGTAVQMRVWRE
Inadl_8, Q8NI35, sequence (Q8NI35 1425-1530): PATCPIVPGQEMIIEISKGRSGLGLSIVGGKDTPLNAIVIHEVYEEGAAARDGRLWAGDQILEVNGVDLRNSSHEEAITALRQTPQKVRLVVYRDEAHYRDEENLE
DLG4_3, P78352, sequence (P78352 306-403): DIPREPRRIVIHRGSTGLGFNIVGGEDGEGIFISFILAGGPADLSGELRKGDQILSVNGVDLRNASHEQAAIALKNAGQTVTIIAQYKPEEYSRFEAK
PDLIM1, O00151, sequence (O00151 1-87): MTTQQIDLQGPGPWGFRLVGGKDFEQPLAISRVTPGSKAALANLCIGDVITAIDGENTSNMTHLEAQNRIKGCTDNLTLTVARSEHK
PARD3_3, Q8TEW0, sequence (Q8TEW0 582-685): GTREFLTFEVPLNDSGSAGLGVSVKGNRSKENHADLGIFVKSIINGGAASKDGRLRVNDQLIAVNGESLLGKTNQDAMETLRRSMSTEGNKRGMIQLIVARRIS
IL16_1, Q14005, sequence (Q14005 210-306): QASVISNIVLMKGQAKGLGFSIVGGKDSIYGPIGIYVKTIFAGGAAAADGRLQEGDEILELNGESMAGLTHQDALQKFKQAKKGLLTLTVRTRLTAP
FRMPD2_2, Q68DX3, sequence (Q68DX3 944-1038): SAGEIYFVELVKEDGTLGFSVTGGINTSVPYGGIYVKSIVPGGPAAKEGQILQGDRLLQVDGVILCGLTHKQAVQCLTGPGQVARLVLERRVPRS
NOS1, P29475, sequence (P29475 9-101): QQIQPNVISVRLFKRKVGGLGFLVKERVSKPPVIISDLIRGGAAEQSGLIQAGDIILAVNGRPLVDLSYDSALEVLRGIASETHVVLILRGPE
DLG5_1, Q8TDM6, sequence (Q8TDM6 617-713): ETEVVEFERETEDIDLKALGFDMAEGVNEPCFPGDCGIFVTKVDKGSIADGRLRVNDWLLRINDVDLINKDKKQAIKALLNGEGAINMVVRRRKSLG
LIMK2, P53671, sequence (P53671 143-248): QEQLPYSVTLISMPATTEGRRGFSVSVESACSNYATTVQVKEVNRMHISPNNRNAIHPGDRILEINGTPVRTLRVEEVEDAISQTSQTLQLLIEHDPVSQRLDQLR
IL16_4, Q14005, sequence (Q14005 1229-1329): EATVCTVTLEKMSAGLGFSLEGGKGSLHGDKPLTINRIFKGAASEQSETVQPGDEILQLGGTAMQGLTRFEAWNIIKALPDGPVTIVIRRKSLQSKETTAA

Binder	pKd [1]	pKd [2]	pKd [3]	pKd [4]	pKd [5]	pKd [6]	pKd [7]	pKd [8]	pKd [9]	pKd [10]	pKd [11]	pKd [12]	pKd [13]	pKd [14]	pKd [15]	pKd [16]	pKd [17]	pKd [18]	pKd [19]	pKd [20]	further results
YYKRPVQEWV [MMP24, Q9Y5R2]	below the threshold	below the threshold	4.23	below the threshold	below the threshold	below the threshold	below the threshold	5.44	below the threshold	4.37	3.48	3.57	3.69	below the threshold	below the threshold	below the threshold	4.24	4.39	3.73	below the threshold	pKd [21]: below the threshold; pKd [22]: below the threshold; pKd [23]: below the threshold; pKd [24]: below the threshold; pKd [25]: below the threshold; pKd [26]: 4.08
QSLNRMEYIV [JAG1, P78504]	below the threshold	below the threshold	4.45	below the threshold	below the threshold	below the threshold	below the threshold	5.14	below the threshold	below the threshold	3.91	below the threshold	below the threshold	below the threshold	below the threshold	below the threshold	below the threshold	3.54	4.37	below the threshold	pKd [21]: below the threshold; pKd [22]: below the threshold; pKd [23]: below the threshold; pKd [24]: below the threshold; pKd [25]: below the threshold; pKd [26]: 4.18
VRNLPESEEL [MYOZ3, Q8TDC0]	below the threshold	below the threshold	below the threshold	below the threshold	below the threshold	below the threshold	below the threshold	below the threshold	below the threshold	3.94	below the threshold	below the threshold	below the threshold	below the threshold	below the threshold	below the threshold	3.88	below the threshold	below the threshold	5.23	pKd [21]: below the threshold; pKd [22]: below the threshold; pKd [23]: 3.57; pKd [24]: below the threshold; pKd [25]: below the threshold; pKd [26]: below the threshold

Now from value to binder, other results behind:

pKd [1]	pKd [2]	pKd [3]	pKd [4]	pKd [5]	pKd [6]	pKd [7]	pKd [8]	pKd [9]	pKd [10]	pKd [11]	pKd [12]	pKd [13]	pKd [14]	pKd [15]	pKd [16]	pKd [17]	pKd [18]	pKd [19]	pKd [20]	Binder	further results
below the threshold	4.06	3.85	4.04	below the threshold	3.63	4.37	3.99	below the threshold	4.04	below the threshold	3.74	4.33	below the threshold	3.66	3.83	3.88	3.76	below the threshold	below the threshold	LPHGHSTTRV [NLGN4X, Q8N0W4]	pKd [21]: below the threshold; pKd [22]: below the threshold; pKd [23]: 4.05; pKd [24]: below the threshold; pKd [25]: 4; pKd [26]: below the threshold
below the threshold	3.6	4.21	below the threshold	below the threshold	below the threshold	below the threshold	below the threshold	below the threshold	below the threshold	below the threshold	3.58	below the threshold	below the threshold	3.71	below the threshold	6.17	3.72	below the threshold	below the threshold	GNSVLKSTQF [SLC22A12, Q96S37]	pKd [21]: below the threshold; pKd [22]: below the threshold; pKd [23]: below the threshold; pKd [24]: below the threshold; pKd [25]: below the threshold; pKd [26]: 4.13
